Sequences and labels used below:
B1: TPR t1 (parent)
chain: GACCAAUCUGCCCUCAGAGCUCGAGAACAUCUUCGGAUGCAGAGGAGGCAGGCUUCGGUGGCGCGAUAGCGCCAACGUCCUCAACCUCCAAUGCAUCCCACCACAUGAUGAUGCCUGAAGAGCCUUGGUUUUUUG

This note sets out measurements from the RNAGym collection of RNA variant scans (doi:10.1073/pnas.2313332121).

The data set covers variants of B1. The data set can be described thus: polymerase ribozyme fitness, log enrichment relative to wild type (log ratio); higher = more active; in vitro selection for triplet polymerase activity. In short, it runs like this:
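Streptavidin-bead capture of gel-excised extended constructs, followed by RT-PCR, closed a single triplicate in vitro selection round. That round began by annealing PCR-built, transcribed mutant libraries of each subunit of a heterodimeric triplet polymerase ribozyme with a biotinylated primer, the partner subunit and triplets, then incubating them frozen at −7 °C. After Illumina sequencing of inputs and outputs, genotypes needed ≥10 input reads and ≥1 read per output. Fitness is the base-2 logarithm of genotype enrichment over wild-type enrichment, using inverse-variance-weighted replicate averages.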
As for GACCAAUCUGCCCUCAGAGCUCCAGAACAUCUUCGGAUGCAGAGGAGGCAGGCUUCGGUGGCGCGAUAACGCCAACGUCCUCAACCUCCAAUGCAUCCCACCACAUGAUGAUGCCUGAAGAGCCUUGGUUUUUUG [G23C G69A], the “polymerase ribozyme fitness (log ratio)” value was -7.97. Next, GACCAAUCUGCCCUCAGAGCUCGCGAGCAUCUUCGGAUGCAGAGGAGGCAGGCUUCGGUGGCGCGAUAGCGCCAACGUCCUCAACCUCCAAUGCAUCCCACCACAUGAUGAUGCCUGAAGAGCCUUGGUUUUUUG [A24C A27G]: -6.86. As for GACCAAUCUGCCCUCAGAGCUCGCGAACAUCUUCGGAUGUAAAGGAGGCAGGCUUCGGUGGCGCGAUAGCGCAAACGUCCUCAACCUCCAAUGCUUCCCAUCACAUGAUGAUGCCUGAAAAGCCUUGGUCUUUUG [A24C C40U G42A C73A A95U C101U G120A U130C], the “polymerase ribozyme fitness (log ratio)” value is -7.09.

Turning to GACCAAUCUGCCCUCAGAGCUCUAGCACAUCUUCGGAUGCAGUGGAGGCAGGCUUCGGUGGCUCGAUAGCGCCAACGUCCUCAACCUCCAAUACAUCCCACCACAUGAUGAUGCCUCAAGAGCCUUGGUUUUUUG [G23U A26C A43U G63U G93A G117C], the “polymerase ribozyme fitness (log ratio)” value was -6.53. For GACCAAUCUGCCCUCAGAGCUCGGGAACAUCUUCGGAUGCAGAGGUGGCAGGCUUCGGUGGGGCGAUAGCGCCAACGUCCUCAACCUCCAAUGCAUCCCACCACAUGAUGAUGCCUGAAGAGCCUUGGUUUUUUG [A24G A46U C62G] the value was -5.81; for GACCAAUCUGCCCUCAGAGCUCGGGAACUUCUUCGGAUGCAGAUGAGGCAGGCUUCGGUGGCGCGAUAGCGCCAACGUCAUCAACCUCCAAUGCAUCCCACCACAUGAUGAUGCCUGAAGAGCCUUGGUUUUUUG [A24G A29U G44U C80A], -6.46; for GACCAAUCUGCCCUCAGAGCUCGCGAACAUCCUCGGAUGCAGAGGAGGCAGGCUUCGGUGGCGCGAUAGCGCAAACGUCCUCAACCUCCAAUGCAGCCCACCACAUGAUGUUGCCUGAAGAGCCUUGGUUUUUUG [A24C U32C C73A U96G A111U], -7.08.

With GACCAAUCUGCCCUCAGAGCUCUAGAACAUCUUCGGAUGCAGAGGAGGCAGGCUUCGGUGGCGUGAUAGCGCCAACGUCCUCAACCUCCAAUGCAUCCCACCACAUGAUGAUGCCUGAAGAGCCUUGGUUUUUUG [G23U C64U], the “polymerase ribozyme fitness (log ratio)” value is -4.56. As for GACCAAUCUGCCCUCAGAGCUCAAGAACAUCUUCGGAUGCAGAGGAGGCAGGCUUCGGUGGCGCGAUAGCGUCAACGUCCUCAACCUCCAAUGCAUCCCACCACAUGAUGAUGCCUGAAGAGCCUUGGUUUUUUG [G23A C72U], the “polymerase ribozyme fitness (log ratio)” value is -5.21. For GACCAAUCUGCCCUCAGAGCUCAAGAACAUCUUCGGAUGCAGAGGAGGCAGGCUUCGGUGGCGCGAUAGCGGCAACGUCCUCAACCUCCAAUGCAUCCCACCACAUGAUGAUGCCUGAAGAGCCUUGGUUUUUUG [G23A C72G] the value was -4.87; for GACCAAUCUGCCCUCAGAGCUCUAGAACAUCUUCGGAUGCAGAGGAGGCAGGCUUCGGUGGCGCGAUAGCGCCAACGUCCUCAACCUCCAAUGCAUCCCACCACAUGAUGAUGCCUGAAGAGCAUUGGUUUUUUG [G23U C124A], -4.31; for GACCAAUCUGCCCUCAGAGCUCGCGAACAUCUUCGGAUGCAGUGGAGGAAGGCUUCGGUGGCGCGAUAGCGCCAACGUACUCAACCUCCAAUGCAUCUCACCACAUGAUGAUGUCUGAAGAGCCUUGGUUUUUUG [A24C A43U C49A C79A C98U C114U], -7.85.

With GACCAAUCUGCCCUCAGAGCUCAAGAACAUCUUCGGAUGCAGAGGAGGCAGGCUUCGGUGGCGCGAUAGCGCCAACGUCCUCAACCUCCAAUGCAUCCCACCACAAGAUGAUGCCUGAAGAGCCUUGGUUUUUUG [G23A U106A], the “polymerase ribozyme fitness (log ratio)” value is -3.44. For GACCAAUCUGCCCUCAGAGCUCGCGAACAUCUUCGGAUGCAGAGGAGCCAGGCUUCGGUGGCGCGAUAGCGCCAACGUCCUCAACCACCAAUGCAUUCCACCACAUGAUGAUGCCUGAAGAGCAUUGGUUUUUUG [A24C G48C U87A C97U C124A] the value was -7.52; for GACCAAUCUGCCCUCAGAGCUCGGGAACAUCUUCGGAUGCAGAGGAGGAAGGCUUCGGUGGCGCCAUAGAGCCAACGUCCUCAACCUCCAAUGCAUCCCACCACAUGAUGAUUCCUGAAGAGCCUUGGUUUUUUG [A24G C49A G65C C70A G113U], -6.47; for GACCAAUCUGCCCUCAGAGCUCUAGAACAUGUUCGGAUGCAGAGGAGGCAGGCUUCGGUGGCGCGAUAGCGCCAACGUCCUCAACCUCCAAUGCAUCCCACGACAUGAUGAUGCCUGAAGAGCAUUGGUUUUUUG [G23U C31G C102G C124A], -6.83. GACCAAUCUGCCCUCAGAGCUCUAGAACAUCUUCGGAUGCAGAGGAGGCAGGCUUCGGUUGCGCCAUAGCGCCAACGUCCUCAACCUCCAAUGCAUCCGACCACAUGAUGAUGCCUGAAGAGUCUUGGUUUUUUG [G23U G60U G65C C99G C123U]: the “polymerase ribozyme fitness (log ratio)” value is -7.81. For GACCAAUCUGCCCUCAGAGCUCCAGGACAUCUUCGGAUGCAGAGGAGGCAGGCUUCGGUGGCGCGAUAGCGCCAACGUCCUCAACCUCCAAUGCAUCCCACCACAUGAUGAUGCCUGAAGAGCUUUGGUUUUUUG [G23C A26G C124U] the value was -5.18; for GACCAAUCUGCCCUCAGAGCUCUAGAACAUCUUCGGAUGCAGAGGAGGCAGGCUUCGGUGGCGCGAUACCGCCAACGUCCUCAACCUCCAAUGCAUCCCACCACAUGAUGAUGCCUGAAAAGCCUUGGUUUUUUG [G23U G69C G120A], -5.9. Next, GACCAAUCUGCCCUCAGAGCUCAAGAACAUCUUCGGAUGCAGAGGAGGCAGGCUUCGGUGGCGCGAUAGCGCAAACGUCCUCGACCUCCAAUGCAUCCCACCACAUGAUGAUGCCUGAAUAGCCUUGGUUUUUUG [G23A C73A A83G G120U]: -6.38.

Take GACCAAUCUGCCCUCAGAGCUCGGGAACAUCUUCGGAUGCAGAGGAGGCAGGCUUCGGUGGCGCGAUAGCGCCAACGUCCUCAACCUCCAAUGCAUCCCACCACAUGAUGAUGCCUGAGGUGCCUUGGUUUUUUG [A24G A119G A121U]: the “polymerase ribozyme fitness (log ratio)” value turned out to be 1.12.
